Assay results taken from patent US20240207216A1, “COMPOSITIONS AND METHOD FOR TREATING GUT PERMEABILITY CAUSED BY HYDROGEN SULFIDE PRODUCING BACTERIA” (UNM RAINFOREST INNOVATIONS, priority 2022, published 2024).

How the values were obtained:
[1] = system: Desulfovibrio desulfuricans; conditions: cited from earlier work
polarized Caco-2 cells = experiment: DSV-induced paracellular permeability, 4 kDa FITC-dextran flux; format: cell-based, Human; conditions: IAP 500 U/ml apical and basolateral, 24 h before DSV MOI 20 for 24 h; vs DSV+Veh
Protocol: FIG. 7. Rapamycin reduces DSV-induced paracellular permeability. Human Caco-2 cells were grown in 0.4 μm trans-well inserts for three weeks to generate polarized intestinal epithelial monolayers. Cells were treated with 100 nM rapamycin, an inducer of autophagy, for two hours followed by DSV infection (MOI 20) for 24 hours. Barrier integrity was assessed by measuring paracellular flux of 4 kDa FITC-Dextran.
Human colonic epithelial cells Caco-2 were purchased from the American Type Culture Collection (ATCC, Manassas, VA). Cells were grown in DMEM+20% FBS+penicillin and streptomycin (Thermo Fisher Scientific, Inc., Waltham, MA). Cells were grown at 37° C. in a humidified incubator with 5% CO2. […]
Tight junction barrier integrity in 21-day old polarized Caco-2 cells grown in 12-well trans-well plates was assessed via transepithelial electric resistance (TEER) using EVOM meter (World Precision Instruments, LLC, Sarasota, FL). […] Paracellular permeability was quantified by measuring FITC-dextran flux (Fluorescein isothiocyanate-dextran 4000 (FD-4), Sigma-Aldrich, St. Louis, MO). […] After one hour of incubation, 100 μl of the basolateral medium was collected and analyzed for the presence of FITC fluorescence. Fluorescence was measured at the wavelengths of excitation at 485 nm and emission at 520 nm using a plate reader (Synergy HTX Multi-Mode Reader, BioTek, Winooski, VT). […]

Snail [2] = experiment: DSV-induced Snail nuclear localization by immunofluorescence; format: cell-based, Human; conditions: IAP pre-treatment, DSV infection; vs DSV+Veh
Protocol: FIG. 5. Intestinal Alkaline Phosphatase inhibits DSV-induced permeability by inhibiting Snail. Polarized Caco-2 cells were pre-treated with IAP (500 U/ml) at the apical and the basolateral surface for 24 hours prior to challenge with D. vulgaris. (A) FITC-dextran was added to the cells apically after 24 hours infection with D. vulgaris. Fluorescence was measured by taking out 100 μl medium from the basolateral surface after one-hour incubation. Graph represents Mean±SEM of % FITC-flux compared to uninfected control cells from at least three independent experiments. **p<0.01. (B) Snail protein expression was analyzed by Western blotting in cells pre-treated with or without IAP followed by infection with D. vulgaris. The solution in which IAP was supplied was used as a Vehicle control. Actin was used as a loading control. (C) Quantification of Western blot for detection of Snail. Graph represents Mean±SEM of ratio of Snail/Actin and values were normalized to control from at least three independent experiments. *p<0.05. (D) Cells were pre-treated with or without IAP followed by infection with D. vulgaris. Cells were fixed with 4% paraformaldehyde and probed by immunofluorescence for Snail staining. Graph represents quantification of % cells showing nuclear staining of Snail in control, DSV+Vehicle (Veh), or DSV+IAP treated groups. […]

Snail [3] = experiment: DSV-induced Snail protein expression by Western blot; format: cell-based, Human; conditions: IAP 500 U/ml pre-treatment 24 h, DSV 24 h; vs DSV+Veh
Protocol: FIG. 16. Rapamycin reduces DSV-induced Snail protein expression. Polarized Caco-2 cells were treated with 100 nM rapamycin for two hours, followed by DSV infection (MOI 20) for 24 hours. Cells were harvested and lysed. (A) Protein lysate was analyzed for Snail expression by Western blotting. (B) Quantitation of Snail expression from Western blot in (A). DSV: 7.14±0.73; DSV+Rapamycin: 3.10±0.74, **p<0.01.
Human colonic epithelial cells Caco-2 were purchased from the American Type Culture Collection (ATCC, Manassas, VA). Cells were grown in DMEM+20% FBS+penicillin and streptomycin (Thermo Fisher Scientific, Inc., Waltham, MA). Cells were grown at 37° C. in a humidified incubator with 5% CO2. To allow polarization and differentiation, cells were seeded at a density of 5×10^3 cells/well in 12-well 0.4 μm trans-well inserts for three weeks. Twenty-four hours before infection, growth medium was replaced with colorless medium (DMEM+20^0/o FBS) without antibiotics. […]
Cells were lysed in lysis buffer (Thermo Fisher Scientific, Inc., Waltham, MA; catalog #87787) containing protease and phosphatase inhibitors (Thermo Fisher Scientific, Inc., Waltham, MA; catalog #1861281) for 20 minutes at 4° C. with shaking. […] Protein concentration in the supernatants was determined with Bradford reagent (Bio-Rad Laboratories, Inc., Hercules, CA). […]

occludin = experiment: Occludin localization by immunofluorescence in DSV-infected cells; format: cell-based, Human; conditions: IAP pre-treatment, DSV infection (DSV+IAP)

Molecule	growth of Desulfovibrio desulfuricans [1]	D. vulgaris-induced FITC-dextran flux (polarized Caco-2 cells)	percentage of cells with nuclear localization of Snail (Snail [2])	Snail protein expression (Snail [3])	occludin staining (occludin)
[Bi] [bismuth]	inhibits the growth				
intestinal alkaline phosphatase (protein, UniProt P09923 20-503, looked up, host defense protein produced by enterocytes in the small intestine) Intestinal-type alkaline …: VIPAEEENPAFWNRQAAEALDAAKKLQPIQKVAKNLILFLGDGLGVPTVTATRILKGQKNGKLGPETPLAMDRFPYLALSKTYNVDRQVPDSAATATAYLCGVKANFQTIGLSAAARFNQCNTTRGNEVISVMNRAKQAGKSVGVVTTTRVQHASPAGTYAHTVNRNWYSDADMPASARQEGCQDIATQLISNMDIDVILGGGRKYMFPMGTPDPEYPADASQNGIRLDGKNLVQEWLAKHQGAWYVWNRTELMQASLDQSVTHLMGLFEPGDTKYEIHRDPTLDPSLMEMTEAALRLLSRNPRGFYLFVEGGRIDHGHHEGVAYQALTEAVMFDDAIERAGQLTSEEDTLTLVTADHSHVFSFGGYTLRGSSIFGLAPSKAQDSKAYTSILYGNGPGYVFNSGVRPDVNESESGSPDYQQQAAVPLSSETHGGEDVAVFARGPQAHLVHGVQEQSFVAHVMAFAACLEPYTACDLAPPACTTD		inhibited	significant reduction	significantly reduced	comparable to control
